Measured values as given in publication PMC11853025.
Numbering of substitutions follows the chain as printed. Names and notes keep the numbering of the source. Blank lines part the entries; values can stand above or below the binder they belong to.

Key:
iC3b [1] = biological target: iC3b (UniProt P01024); experiment: SPR; C3b deposited on a CM5 chip (amine-coupled seed, then convertase-mediated deposition to about 5000 RU), iC3b and C3dg made from it on the chip; αI domains injected as dilution series, 120 s; Biacore T200, 25 °C; HBST (10 mM HEPES, 150 mM NaCl, 0.005% Tween-20, pH 7.4) with 1 mM MgCl2; Langmuir 1:1 fit, KD calculated
iC3b [2] = biological target: iC3b (UniProt P01024); experiment: SPR; competitive: αI domains at 5 µM preincubated with simvastatin (3-100 µM), injected over immobilised iC3b or ICAM-1; HBST with 1 mM MgCl2 and 5% DMSO; signal as percent of the non-inhibited signal

Kd (iC3b [1]): 33 µM
B1: CR4 αXI domain, wild type (WT) (domain or fragment)
chain: QEQDIVFLIDGSGSISSRNFATMMNFVRAVISQFQRPSTQFSLMQFSNKFQTHFTFEEFRRSSNPLSLLASVHQLQGFTYTATAIQNVVHRLFHASYGARRDAAKILIVITDGKKEGDSLDYKDVIPMADAAGIIRYAIGVGLAFQNRNSWKELNDIASKPSQEHIFKVEDFDALKDIQNQLKEKIFAI

residual binding activity with simvastatin (percent of the non-inhibited signal) (iC3b [2]): 63%
Kd (iC3b [1]): 2.6 µM
B2: CR4 αXI domain, high-affinity (HA) variant p.I333G (domain or fragment)
chain: B1 chain with I186G
